Experimental data from patent publication US20140087995A1 (published 2014).
Values belong to the binder of their own block, whether it stands above or below them. Numbered stars: 1 amine (or outer) side, 2 acyl side, 3 side chain; on linkers, the order of the positions; unused ones are H or OH. Bridge positions count the residues as written; N and C are the ends. Square brackets hold non-standard residues; d marks the D form. Side chains are listed from the residue outwards. Ends that are not written are not given here. * marks the point of attachment. C20 diacid = O=C(O)CCCCCCCCCCCCCCCCCCC(=O)*; γGlu = O=C(O)[C@H](CCC(=O)[*:2])N[*:1]

Columns and labels:
[1] = target: T1, human calcitonin receptor (human, UniProt P30988 25-474); experiment: ratio of IC50 at hCTR over IC50 at hAmylin-R (SPA competition assays)
T1 construct: whole, on cells; Membranes of BHK cells stably transfected with the human calcitonin receptor (Assay VII); also called hCTR; hCT
T1 sequence (looked up): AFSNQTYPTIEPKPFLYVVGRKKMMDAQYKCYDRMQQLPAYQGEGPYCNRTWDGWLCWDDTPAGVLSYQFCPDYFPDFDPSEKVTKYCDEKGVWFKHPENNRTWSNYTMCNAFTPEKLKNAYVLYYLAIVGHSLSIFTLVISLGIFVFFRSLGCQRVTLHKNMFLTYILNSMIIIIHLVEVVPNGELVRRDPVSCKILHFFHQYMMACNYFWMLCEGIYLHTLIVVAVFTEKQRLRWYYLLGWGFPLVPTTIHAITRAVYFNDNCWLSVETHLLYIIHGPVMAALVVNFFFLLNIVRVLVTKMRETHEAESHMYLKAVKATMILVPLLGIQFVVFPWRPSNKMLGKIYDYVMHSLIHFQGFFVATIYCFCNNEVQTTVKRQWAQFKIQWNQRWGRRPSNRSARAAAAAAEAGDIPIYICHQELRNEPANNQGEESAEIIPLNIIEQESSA
Protocol: The resulting pellet was resuspended, homogenized and centrifuged (20.000 rpm, 15 min) in a buffer containing 20 mM Na-HEPES and 0.1 mM EDTA (pH 7.4, buffer 2). The resulting pellet was resuspended in buffer 2 and protein concentration was measured (BCA protein Assay, Pierce). The homogenate was kept cold during the whole procedure. The membranes were kept at −80° C. until use. The assay was performed in a 384 well Optiplate (PerkinElmer) in a total volume of 40 ul. Membranes were mixed with SPA beads. Final concentration of membranes 35 ng/μL final and SPA beads was 0.05 mg/well. Test-compounds were dissolved in DMSO and further diluted in assay buffer (50 mM Hepes, pH 7.4, 1 mM CaCl2, 5 mM MgCl₂, 0.1% OA and 0.02% Tween20). […] The final mixture was incubated with shaking at 400 rpm for 120 min at 25° C. prior to centrifugation (1500 rpm, 10 min). Samples were analyzed on TopCounter™ (Packard). The IC₅₀ was calculated using (one site binding competition analysis) GraphPad Prism5 as a measure of receptor affinity.
Membranes were prepared in the following way; the cells were rinsed with PBS and incubated with Versene for approximately 5 min before harvesting. The cells were flushed with PBS and the cell-suspension was centrifuged for 5 min at 1000 rpm. Cells were homogenized (Ultrathurrax) in a buffer containing 20 mM Na-HEPES and 10 mM EDTA (pH 7.4) and centrifuged at 20.000 rpm for 15 min. The resulting pellet was resuspended, homogenized and centrifuged (20.000 rpm, 15 min) in a buffer containing 20 mM Na-HEPES and 0.1 mM EDTA (pH 7.4, buffer 2). The resulting pellet was resuspended in buffer 2 and protein concentration was measured (BCA protein Assay, Pierce). The homogenate was kept cold during the whole procedure. The membranes were kept at −80° C. until use. Assay was performed in a 384 well Optiplate (PerkinElmer) in a total volume of 40 ul. Membranes were mixed with SPA beads.

[2] = target: T1, human calcitonin receptor; experiment: SPA competition against 125I-calcitonin, membranes of BHK cells with human calcitonin receptor (Assay VII)
Protocol: Membranes were prepared in the following way; the cells were rinsed with PBS and incubated with Versene for approximately 5 min before harvesting. The cells were flushed with PBS and the cell-suspension was centrifuged for 5 min at 1000 rpm. Cells were homogenized (Ultrathurrax) in a buffer containing 20 mM Na-HEPES and 10 mM EDTA (pH 7.4) and centrifuged at 20.000 rpm for 15 min. The resulting pellet was resuspended, homogenized and centrifuged (20.000 rpm, 15 min) in a buffer containing 20 mM Na-HEPES and 0.1 mM EDTA (pH 7.4, buffer 2). The resulting pellet was resuspended in buffer 2 and protein concentration was measured (BCA protein Assay, Pierce). The homogenate was kept cold during the whole procedure. The membranes were kept at −80° C. until use. Assay was performed in a 384 well Optiplate (PerkinElmer) in a total volume of 40 ul. Membranes were mixed with SPA beads. Final concentration of membranes 35 ng/μL final and Final concentration of SPA beads was 0.05 mg/well. Test-compounds were dissolved in DMSO and further diluted in assay buffer (50 mM Hepes, pH 7.4, 1 mM CaCl2, 5 mM MgCl₂, 0.1% OA and 0.02% Tween20). […] The final mixture was incubated for 120 min with shaking at 400 rpm at 25° C. prior to centrifugation (1500 rpm, 10 min). Samples were analyzed on TopCounter™ (Packard). The […] was calculated using (one site binding competition analysis) GraphPad Prism5 as a measure of receptor affinity.

rat calcitonin receptor [3] = target: T2, rat calcitonin receptor (rat, UniProt P32214 25-516); experiment: ratio IC50 rat calcitonin receptor / IC50 rat amylin receptor (Assays VIII and VI)
T2 construct: whole, on cells; Used as membranes prepared from the transfected cells; also called rCTR; rat calcitonin (a) receptor
T2 sequence (looked up): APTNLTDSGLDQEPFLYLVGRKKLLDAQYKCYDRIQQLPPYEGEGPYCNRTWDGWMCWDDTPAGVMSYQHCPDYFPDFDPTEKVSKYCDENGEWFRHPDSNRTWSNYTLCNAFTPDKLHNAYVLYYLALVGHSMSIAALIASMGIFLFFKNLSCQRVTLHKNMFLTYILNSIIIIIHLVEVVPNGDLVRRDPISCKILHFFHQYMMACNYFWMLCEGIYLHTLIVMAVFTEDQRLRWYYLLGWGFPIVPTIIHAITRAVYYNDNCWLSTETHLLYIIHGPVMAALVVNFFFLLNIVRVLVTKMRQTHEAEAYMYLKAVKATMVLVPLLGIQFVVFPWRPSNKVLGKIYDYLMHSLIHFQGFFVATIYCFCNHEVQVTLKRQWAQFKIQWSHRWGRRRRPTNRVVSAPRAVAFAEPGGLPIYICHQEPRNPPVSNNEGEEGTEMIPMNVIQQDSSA

[4] = target: T3, human calcitonin receptor (human, UniProt P30988 25-474); experiment: ratio IC50 human calcitonin receptor / IC50 human amylin receptor (Assays VII and V)
T3 construct: whole, on cells; Used as membranes prepared from the transfected cells (Assay VII); also called hCTR; hCT
T3 sequence (looked up): T1 sequence (looked up)
Summary of the method: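 Competition binding by SPA uses membrane preparations (35 ng/μL final) in pH 7.4 Hepes buffer with 1 mM CaCl2 and 5 mM MgCl₂. Incubation lasts 120 min at 25° C, and IC₅₀ comes from one-site fitting.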

rat calcitonin receptor [5] = target: T2, rat calcitonin receptor; experiment: SPA competition with 125I-calcitonin, membranes of BHK cells with rat calcitonin receptor (Assay VIII)
[6] = target: T4, rat amylin receptor (rat calcitonin receptor + rat RAMP 3) (rat, UniProt P32214 25-516; Q9JJ73 23-147); experiment: SPA competition with 125I-rat amylin, membranes of BHK cells with rat calcitonin receptor + rat RAMP3 (Assay VI)
T4 construct: whole, on cells; Used as membranes prepared from the transfected cells; also called rAmylin-R; rat amylin 3(a) receptor
T4 sequence (looked up) 1: T2 sequence (looked up)
T4 sequence (looked up) 2: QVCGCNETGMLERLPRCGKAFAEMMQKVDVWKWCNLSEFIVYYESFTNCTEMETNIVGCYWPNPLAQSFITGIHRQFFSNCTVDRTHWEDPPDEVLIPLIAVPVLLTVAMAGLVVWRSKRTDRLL

Ratio hCT/hAmylin binding [1]: 65.3
IC50 [2]: 66.3 nM
B1: N^-1-[(4S)-4-carboxy-4-(19-carboxynonadecanoylamino)butanoyl]-Gly[Arg1,His14,Arg17,Pro21,Pro27,His34]-h-amylin (peptide)
peptide: {C20 diacid-γGlu}-GRCNTATCATQRLAHFLRHSSPNFGAIPSSTNVGHNTY-NH2
modifications: disulfide 3-8
SMILES: CC[C@H](C)[C@H](NC(=O)[C@H](C)NC(=O)CNC(=O)[C@H](Cc1ccccc1)NC(=O)[C@H](CC(N)=O)NC(=O)[C@@H]1CCCN1C(=O)[C@H](CO)NC(=O)[C@H](CO)NC(=O)[C@H](Cc1c[nH]cn1)NC(=O)[C@H](CCCNC(=N)N)NC(=O)[C@H](CC(C)C)NC(=O)[C@H](Cc1ccccc1)NC(=O)[C@H](Cc1c[nH]cn1)NC(=O)[C@H](C)NC(=O)[C@H](CC(C)C)NC(=O)[C@H](CCCNC(=N)N)NC(=O)[C@H](CCC(N)=O)NC(=O)[C@@H](NC(=O)[C@H](C)NC(=O)[C@@H]1CSSC[C@H](NC(=O)[C@H](CCCNC(=N)N)NC(=O)CNC(=O)CC[C@H](NC(=O)CCCCCCCCCCCCCCCCCCC(=O)O)C(=O)O)C(=O)N[C@@H](CC(N)=O)C(=O)N[C@@H]([C@@H](C)O)C(=O)N[C@@H](C)C(=O)N[C@@H]([C@@H](C)O)C(=O)N1)[C@@H](C)O)C(=O)N1CCC[C@H]1C(=O)N[C@@H](CO)C(=O)N[C@@H](CO)C(=O)N[C@H](C(=O)N[C@@H](CC(N)=O)C(=O)N[C@H](C(=O)NCC(=O)N[C@@H](Cc1c[nH]cn1)C(=O)N[C@@H](CC(N)=O)C(=O)N[C@H](C(=O)N[C@@H](Cc1ccc(O)cc1)C(N)=O)[C@@H](C)O)C(C)C)[C@@H](C)O
notes: also called compound 100

IC50 [2]: 112 nM
B2: N^ε1-[(4S)-4-carboxy-4-[[(4S)-4-carboxy-4-(19-carboxynonadecanoylamino)butanoyl]amino]butanoyl]-[D-Asp14,Arg17,Pro21,Pro27,Arg35]-h-amylin (peptide)
peptide: K([γGlu-γGlu-C20 diacid])CNTATCATQRLA[dD]FLRHSSPNFGAIPSSTNVGSRTY-NH2
modifications: disulfide 2-7; N-terminus assumed
SMILES: CC[C@H](C)[C@H](NC(=O)[C@H](C)NC(=O)CNC(=O)[C@H](Cc1ccccc1)NC(=O)[C@H](CC(N)=O)NC(=O)[C@@H]1CCCN1C(=O)[C@H](CO)NC(=O)[C@H](CO)NC(=O)[C@H](Cc1c[nH]cn1)NC(=O)[C@H](CCCNC(=N)N)NC(=O)[C@H](CC(C)C)NC(=O)[C@H](Cc1ccccc1)NC(=O)[C@@H](CC(=O)O)NC(=O)[C@H](C)NC(=O)[C@H](CC(C)C)NC(=O)[C@H](CCCNC(=N)N)NC(=O)[C@H](CCC(N)=O)NC(=O)[C@@H](NC(=O)[C@H](C)NC(=O)[C@@H]1CSSC[C@H](NC(=O)[C@@H](N)CCCCNC(=O)CC[C@H](NC(=O)CC[C@H](NC(=O)CCCCCCCCCCCCCCCCCCC(=O)O)C(=O)O)C(=O)O)C(=O)N[C@@H](CC(N)=O)C(=O)N[C@@H]([C@@H](C)O)C(=O)N[C@@H](C)C(=O)N[C@@H]([C@@H](C)O)C(=O)N1)[C@@H](C)O)C(=O)N1CCC[C@H]1C(=O)N[C@@H](CO)C(=O)N[C@@H](CO)C(=O)N[C@H](C(=O)N[C@@H](CC(N)=O)C(=O)N[C@H](C(=O)NCC(=O)N[C@@H](CO)C(=O)N[C@@H](CCCNC(=N)N)C(=O)N[C@H](C(=O)N[C@@H](Cc1ccc(O)cc1)C(N)=O)[C@@H](C)O)C(C)C)[C@@H](C)O
notes: Residue 14 is D-aspartic acid (printed 14d)

Ratio rCT/rAmylin binding (rat calcitonin receptor [3]): 32.4
Ratio hCT/hAmylin binding [4]: 15.7
IC50 (rat calcitonin receptor [5]): 60.1 nM
IC50 [6]: 1.86 nM
B3: N{Alpha-1}-[(4S)-4-carboxy-4-(19-carboxynonadecanoylamino)butanoyl]-[Glu14,Arg17,Pro21,Pro27,Lys34]-h-amylin (peptide)
peptide: {C20 diacid-γGlu}-KCNTATCATQRLAEFLRHSSPNFGAIPSSTNVGKNTY-NH2
modifications: disulfide 2-7
SMILES: CC[C@H](C)[C@H](NC(=O)[C@H](C)NC(=O)CNC(=O)[C@H](Cc1ccccc1)NC(=O)[C@H](CC(N)=O)NC(=O)[C@@H]1CCCN1C(=O)[C@H](CO)NC(=O)[C@H](CO)NC(=O)[C@H](Cc1c[nH]cn1)NC(=O)[C@H](CCCNC(=N)N)NC(=O)[C@H](CC(C)C)NC(=O)[C@H](Cc1ccccc1)NC(=O)[C@H](CCC(=O)O)NC(=O)[C@H](C)NC(=O)[C@H](CC(C)C)NC(=O)[C@H](CCCNC(=N)N)NC(=O)[C@H](CCC(N)=O)NC(=O)[C@@H](NC(=O)[C@H](C)NC(=O)[C@@H]1CSSC[C@H](NC(=O)[C@H](CCCCN)NC(=O)CC[C@H](NC(=O)CCCCCCCCCCCCCCCCCCC(=O)O)C(=O)O)C(=O)N[C@@H](CC(N)=O)C(=O)N[C@@H]([C@@H](C)O)C(=O)N[C@@H](C)C(=O)N[C@@H]([C@@H](C)O)C(=O)N1)[C@@H](C)O)C(=O)N1CCC[C@H]1C(=O)N[C@@H](CO)C(=O)N[C@@H](CO)C(=O)N[C@H](C(=O)N[C@@H](CC(N)=O)C(=O)N[C@H](C(=O)NCC(=O)N[C@@H](CCCCN)C(=O)N[C@@H](CC(N)=O)C(=O)N[C@H](C(=O)N[C@@H](Cc1ccc(O)cc1)C(N)=O)[C@@H](C)O)C(C)C)[C@@H](C)O
notes: Derivative of human amylin; also called compound 36
